Measured values as given in patent US20190153112A1 (IMMUTEP S A S, published 2019).
pEC50, pKd: −log10 of the molar value.

Key:
[1] = biological target: IMP321 (recombinant soluble human LAG-3Ig fusion protein) (human) (UniProt P18627); assay: FACS, LAG-3Ig-Alexa 488 (1 µg/ml) pre-incubated with antibody 3300 ng/ml, then bound to Raji (MHC class II+) cells
[2] = biological target: IMP321 (recombinant soluble human LAG-3Ig fusion protein) (human) (UniProt P18627); assay: FACS, LAG-3Ig-Alexa 488 (1 µg/ml) pre-incubated with antibody 89 ng/ml, then bound to Raji (MHC class II+) cells
[3] = biological target: human LAG-3 protein (Lymphocyte activation gene-3) on the cell surface (human) (UniProt P18627); assay: flow cytometry on LAG-3-transfected CHO cells; antibody 0 ng/ml (no-antibody background)
Chain of human LAG-3 protein (Lymphocyte activation gene-3) on the cell surface (human) (P18627 other isoform, or with tags, fused parts or gaps): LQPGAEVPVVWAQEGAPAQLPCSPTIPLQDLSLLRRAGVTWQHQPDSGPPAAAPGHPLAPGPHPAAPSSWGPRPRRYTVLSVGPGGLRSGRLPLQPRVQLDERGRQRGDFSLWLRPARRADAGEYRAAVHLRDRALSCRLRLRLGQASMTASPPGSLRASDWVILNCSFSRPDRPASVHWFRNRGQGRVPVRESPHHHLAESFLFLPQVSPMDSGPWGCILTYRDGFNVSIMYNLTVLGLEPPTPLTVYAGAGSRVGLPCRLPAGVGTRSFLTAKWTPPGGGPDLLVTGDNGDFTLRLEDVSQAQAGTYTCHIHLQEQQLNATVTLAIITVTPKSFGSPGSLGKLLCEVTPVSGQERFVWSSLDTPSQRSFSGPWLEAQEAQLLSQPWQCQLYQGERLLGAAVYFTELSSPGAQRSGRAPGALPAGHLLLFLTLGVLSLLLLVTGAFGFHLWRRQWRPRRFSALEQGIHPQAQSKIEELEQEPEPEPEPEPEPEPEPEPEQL

[4] = biological target: human LAG-3 protein (Lymphocyte activation gene-3) on the cell surface (human) (UniProt P18627); assay: flow cytometry on CD4+ cells of SEB-stimulated PBMCs (Donor 1), from Table 13
[5] = biological target: human LAG-3 protein (Lymphocyte activation gene-3) on the cell surface (human) (UniProt P18627); assay: flow cytometry on CD8+ cells of SEB-stimulated PBMCs (Donor 1); antibody 0.4 ng/ml
[6] = biological target: IMP321 (recombinant soluble human LAG-3Ig fusion protein) (human) (UniProt P18627); assay: FACS, LAG-3Ig-Alexa 488 (1 µg/ml) pre-incubated with antibody 990 ng/ml, then bound to Raji (MHC class II+) cells
[7] = biological target: human LAG-3 protein (Lymphocyte activation gene-3) on the cell surface (human) (UniProt P18627); assay: flow cytometry on LAG-3-transfected CHO cells; antibody 1 ng/ml
[8] = biological target: human LAG-3 protein (Lymphocyte activation gene-3) on the cell surface (human) (UniProt P18627); assay: flow cytometry on CD8+ cells of SEB-stimulated PBMCs (Donor 1); antibody 29 ng/ml
[9] = biological target: human LAG-3 protein (Lymphocyte activation gene-3) on the cell surface (human) (UniProt P18627); assay: flow cytometry on LAG-3-transfected CHO cells; antibody 500 ng/ml
[10] = biological target: human LAG-3 protein (Lymphocyte activation gene-3) on the cell surface (human) (UniProt P18627); assay: flow cytometry on LAG-3-expressing CHO cells, from Table 12
[11] = biological target: human LAG-3 protein (Lymphocyte activation gene-3) on the cell surface (human) (UniProt P18627); assay: flow cytometry on CD4+ cells of SEB-stimulated PBMCs (Donor 1); antibody 7 ng/ml
[12] = biological target: IMP321 (recombinant soluble human LAG-3Ig fusion protein) (human) (UniProt P18627); assay: Biacore, LAG-3Ig on the chip and 17B4 antibody in the running buffer
[13] = biological target: human LAG-3 protein (Lymphocyte activation gene-3) on the cell surface (human) (UniProt P18627); assay: flow cytometry on CD4+ cells of SEB-stimulated PBMCs (Donor 1); antibody 0.4 ng/ml
[14] = biological target: human LAG-3 protein (Lymphocyte activation gene-3) on the cell surface (human) (UniProt P18627); assay: flow cytometry on CD4+ cells of SEB-stimulated PBMCs (Donor 1); antibody 0 ng/ml (no-antibody background)
[15] = biological target: human LAG-3 protein (Lymphocyte activation gene-3) on the cell surface (human) (UniProt P18627); assay: flow cytometry on LAG-3-transfected CHO cells; antibody 100 ng/ml
[16] = biological target: human LAG-3 protein (Lymphocyte activation gene-3) on the cell surface (human) (UniProt P18627); assay: flow cytometry on CD4+ cells of SEB-stimulated PBMCs, mean of three donors
[17] = biological target: IMP321 (recombinant soluble human LAG-3Ig fusion protein) (human) (UniProt P18627); assay: FACS, LAG-3Ig-Alexa 488 (1 µg/ml) with antibody 0 ng/ml (no-antibody value), bound to Raji (MHC class II+) cells
[18] = biological target: human LAG-3 protein (Lymphocyte activation gene-3) on the cell surface (human) (UniProt P18627); assay: flow cytometry on CD8+ cells of SEB-stimulated PBMCs (Donor 1); antibody 126 ng/ml
[19] = biological target: human LAG-3 protein (Lymphocyte activation gene-3) on the cell surface (human) (UniProt P18627); assay: flow cytometry on CD4+ cells of SEB-stimulated PBMCs (Donor 1); antibody 29 ng/ml
[20] = biological target: human LAG-3 protein (Lymphocyte activation gene-3) on the cell surface (human) (UniProt P18627); assay: flow cytometry on CD8+ cells of SEB-stimulated PBMCs (Donor 1); antibody 0 ng/ml (no-antibody background)
[21] = biological target: human LAG-3 protein (Lymphocyte activation gene-3) on the cell surface (human) (UniProt P18627); assay: flow cytometry on LAG-3-transfected CHO cells; antibody 0.4 ng/ml
[22] = biological target: human LAG-3 protein (Lymphocyte activation gene-3) on the cell surface (human) (UniProt P18627); assay: flow cytometry on CD8+ cells of SEB-stimulated PBMCs (Donor 1); antibody 541 ng/ml
[23] = biological target: IMP321 (recombinant soluble human LAG-3Ig fusion protein) (human) (UniProt P18627); assay: FACS, LAG-3Ig-Alexa 488 (1 µg/ml) pre-incubated with antibody 297 ng/ml, then bound to Raji (MHC class II+) cells
[24] = biological target: human LAG-3 protein (Lymphocyte activation gene-3) on the cell surface (human) (UniProt P18627); assay: flow cytometry on CD8+ cells of SEB-stimulated PBMCs (Donor 1); antibody 7 ng/ml
[25] = biological target: human LAG-3 protein (Lymphocyte activation gene-3) on the cell surface (human) (UniProt P18627); assay: flow cytometry on CD8+ cells of SEB-stimulated PBMCs (Donor 1), from Table 13
[26] = biological target: human LAG-3 protein (Lymphocyte activation gene-3) on the cell surface (human) (UniProt P18627); assay: flow cytometry on CD8+ cells of SEB-stimulated PBMCs (Donor 1); antibody 10000 ng/ml
[27] = biological target: human LAG-3 protein (Lymphocyte activation gene-3) on the cell surface (human) (UniProt P18627); assay: flow cytometry on LAG-3-transfected CHO cells; antibody 2000 ng/ml
[28] = biological target: human LAG-3 protein (Lymphocyte activation gene-3) on the cell surface (human) (UniProt P18627); assay: flow cytometry on CD8+ cells of SEB-stimulated PBMCs (Donor 1); antibody 1.6 ng/ml

Chain of IMP321 (recombinant soluble human LAG-3Ig fusion protein) (human) (P18627 23-450): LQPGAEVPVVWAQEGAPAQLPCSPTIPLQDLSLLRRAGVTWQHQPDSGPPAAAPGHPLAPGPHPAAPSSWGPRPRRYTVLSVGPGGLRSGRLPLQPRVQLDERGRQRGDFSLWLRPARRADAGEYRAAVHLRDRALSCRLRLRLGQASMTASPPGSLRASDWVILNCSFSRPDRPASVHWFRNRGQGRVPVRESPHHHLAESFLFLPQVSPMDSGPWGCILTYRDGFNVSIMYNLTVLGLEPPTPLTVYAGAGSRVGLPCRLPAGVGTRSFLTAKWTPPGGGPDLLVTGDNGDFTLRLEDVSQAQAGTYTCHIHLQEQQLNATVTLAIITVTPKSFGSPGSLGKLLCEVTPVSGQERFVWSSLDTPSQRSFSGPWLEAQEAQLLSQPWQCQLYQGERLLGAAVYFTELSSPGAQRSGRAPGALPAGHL

## antagonistic anti-LAG-3 mouse monoclonal antibody 17B4
[1]
  MFI of sLAG-3Ig-Alexa 488: 13 MFI
[2]
  MFI of sLAG-3Ig-Alexa 488: 214 MFI
[3]
  MFI: 156 MFI
[4]
  pEC50: 9.30
[5]
  MFI: 195 MFI
[6]
  MFI of sLAG-3Ig-Alexa 488: 35 MFI
[7]
  MFI: 247 MFI
[8]
  MFI: 1400 MFI
[9]
  MFI: 4760 MFI
[10]
  pEC50: 9.15
[11]
  MFI: 324 MFI
[12]
  pKd: 9.92
  koff: 0.000132 s⁻¹
  kon: 1.09e+06 M⁻¹ s⁻¹
[13]
  MFI: 143 MFI
[14]
  MFI: 106 MFI
[15]
  MFI: 3170 MFI
[16]
  pEC50: 9.10
[17]
  MFI of sLAG-3Ig-Alexa 488: 284 MFI
[18]
  MFI: 2840 MFI
[19]
  MFI: 675 MFI
[20]
  MFI: 112 MFI
[21]
  MFI: 179 MFI
[22]
  MFI: 4090 MFI
[23]
  MFI of sLAG-3Ig-Alexa 488: 73 MFI
[24]
  MFI: 606 MFI
[25]
  pEC50: 9.15
[26]
  MFI: 5140 MFI
[27]
  MFI: 5480 MFI
[28]
  MFI: 309 MFI
